Test results reported in patent US20080160574A1 (KOREA ADVANCED INSTITUTE OF SCIENCE AND TECHNOLOGY KAIST, published 2008).
Blank lines part the entries; values can stand above or below the binder they belong to.

Columns and labels:
[1] = molecular target: T1, soluble Tie2-Fc (fusion of the ectodomain of Tie-2 receptor and the Fc domain of human IgG1, R&D Inc) (human, UniProt Q02763 23-748); test: Biacore, Tie2-Fc immobilized on CM5 chip, Fc reference subtracted
T1 construct: Bought (R&D Inc) for the Biacore assay; human Tie2 would be UniProt Q02763; also called sTie2-Fc; T2; not shown: Fc domain of human IgG1 and any linker
T1 sequence (Q02763 23-748 limits assumed): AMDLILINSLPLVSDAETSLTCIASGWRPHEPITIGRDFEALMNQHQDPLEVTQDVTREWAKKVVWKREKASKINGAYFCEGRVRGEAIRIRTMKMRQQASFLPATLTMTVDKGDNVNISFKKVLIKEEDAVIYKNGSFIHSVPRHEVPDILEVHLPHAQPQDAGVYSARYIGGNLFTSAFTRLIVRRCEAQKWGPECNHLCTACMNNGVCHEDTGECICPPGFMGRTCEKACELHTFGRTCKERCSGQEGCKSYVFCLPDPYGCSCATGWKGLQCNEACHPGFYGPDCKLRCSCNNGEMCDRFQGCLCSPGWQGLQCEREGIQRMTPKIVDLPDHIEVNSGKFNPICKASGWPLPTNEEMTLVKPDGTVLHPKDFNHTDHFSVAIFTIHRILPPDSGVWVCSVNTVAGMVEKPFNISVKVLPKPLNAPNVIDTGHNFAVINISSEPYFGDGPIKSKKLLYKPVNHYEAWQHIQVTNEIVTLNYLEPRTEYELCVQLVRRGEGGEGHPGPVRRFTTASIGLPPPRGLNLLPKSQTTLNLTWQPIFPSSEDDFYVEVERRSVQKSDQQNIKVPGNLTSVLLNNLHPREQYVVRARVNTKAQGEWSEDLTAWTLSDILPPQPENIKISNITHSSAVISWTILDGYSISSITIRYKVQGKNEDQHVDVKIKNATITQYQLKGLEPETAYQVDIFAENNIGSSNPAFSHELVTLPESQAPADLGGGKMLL
Protocol: (§1) FIGS. 10A-10D show in vitro binding assay between recombinant native Ang1, GCN4-Ang1/FD, CMP-Ang1/FD, or COMP-Ang1/FD and immobilized soluble Tie2-Fc using Biacore assay. Each recombinant protein was passed over a Biacore sensor chip that had extracellular domain of Tie2-Fc and Fc protein covalently coupled to it, followed by dissembling in absence of the recombinant proteins. Concentrations of the recombinant proteins are shown in each panel. Specificity of binding was assessed by subtracting Fc protein binding value from Tie2-Fc binding value during the measurement. Binding of the sensor chip is provided in resonance units (RUs).
(§2) Alternatively, to determine whether the COS-7 cell-derived recombinant proteins of native Ang1, GCN4/CC-Ang1/FD, CMP/CC-Ang1/FD and COMP/CC-Ang1/FD could bind to Tie-2 receptor, standard Biacore analysis was performed by BIA2000 (BIAcore, Inc.). Briefly, 600 ng of Tie-2-Fc receptor protein (R&D Inc), which is a fusion protein composed of the ectodomain of Tie-2 receptor and Fc domain of human IgG1, was immobilized on a Biacore chip (Sensor Chip CM5). As a control, 600 ng of Fc protein, which had only the Fc domain of human IgG1, was also immobilized on the same chip. The binding affinity was obtained by subtracting the response value using Fc protein from the values obtained using the Tie-2-Fc protein.

[2] = molecular target: T1, soluble Tie2-Fc (fusion of the …); test: Biacore, Tie2-Fc immobilized on CM5 chip
Protocol: as §1, §2

[3] = molecular target: T1, soluble Tie2-Fc (fusion of the …); test: protein-A pull-down with sTie2-Fc, anti-FLAG Western blot
Protocol: Twenty nanograms of each protein was incubated with 100 ng of sTie1-Fc or sTie2-Fc for […], and then, protein-A conjugated agarose beads were added. The precipitate was separated by 10% SDS-PAGE, and electro-blotted on to nitrocellulose membranes. The nitrocellulose membranes were Western blotted with anti-FLAG M1 antibody, washed, and incubated with horseradish peroxidase-conjugated secondary antibody. Signals were visualized by chemiluminescent detection according to the manufacturer's protocol (Amersham Pharmacia Biotech) and chemiluminescence scanner (LAS-1000, Fuji Film, Tokyo). CB, control buffer; PC, positive control of same amount of each recombinant protein without binding.
Twenty nanograms of each recombinant chimeric-Ang1 protein and 100 ng of soluble Tie1-Fc or soluble Tie2-Fc were incubated in 500 μl Tris-buffer solution (50 mM Tris, 100 mM NaCl, pH 7.4) containing 0.02% TritonX-100 at 4° C. for 2 hr. Then, 20 μl of protein-A agarose beads (Oncogene) was added and incubated for another 1 hr at 4° C. The protein-A conjugated samples were washed twice with 1 ml of Tris-buffer containing 0.02% TritonX-100. The samples were eluted with sample buffer, and heat-denatured. The samples were further separated by 10% SDS-PAGE, and electro-blotted on to nitrocellulose membranes, and Western blotted with anti-FLAG M1 antibody to detect the bound recombinant chimeric-Ang1, and further washed and incubated with horseradish peroxidase-conjugated secondary antibody. Signal was visualized by chemiluminescent detection according to the manufacturer's protocol (Amersham Pharmacia Biotech) using chemiluminescence scanner (LAS-1000, Fuji Film, Tokyo). Approximately 75%, 20%, 95% or 100% of native Ang1, GCN4-Ang1/FD, CMP-Ang1/FD, and COMP-Ang1/FD, respectively, bound to sTie2-Fc. In contrast, none of them bound to sTie1-Fc.

[4] = molecular target: Tie2 receptor on human umbilical vein endothelial cells (HUVECs) (human, UniProt Q02763 23-1124); test: cell-based or functional assay
Sequence of Tie2 receptor on human umbilical vein endothelial cells (HUVECs) (Q02763 23-1124): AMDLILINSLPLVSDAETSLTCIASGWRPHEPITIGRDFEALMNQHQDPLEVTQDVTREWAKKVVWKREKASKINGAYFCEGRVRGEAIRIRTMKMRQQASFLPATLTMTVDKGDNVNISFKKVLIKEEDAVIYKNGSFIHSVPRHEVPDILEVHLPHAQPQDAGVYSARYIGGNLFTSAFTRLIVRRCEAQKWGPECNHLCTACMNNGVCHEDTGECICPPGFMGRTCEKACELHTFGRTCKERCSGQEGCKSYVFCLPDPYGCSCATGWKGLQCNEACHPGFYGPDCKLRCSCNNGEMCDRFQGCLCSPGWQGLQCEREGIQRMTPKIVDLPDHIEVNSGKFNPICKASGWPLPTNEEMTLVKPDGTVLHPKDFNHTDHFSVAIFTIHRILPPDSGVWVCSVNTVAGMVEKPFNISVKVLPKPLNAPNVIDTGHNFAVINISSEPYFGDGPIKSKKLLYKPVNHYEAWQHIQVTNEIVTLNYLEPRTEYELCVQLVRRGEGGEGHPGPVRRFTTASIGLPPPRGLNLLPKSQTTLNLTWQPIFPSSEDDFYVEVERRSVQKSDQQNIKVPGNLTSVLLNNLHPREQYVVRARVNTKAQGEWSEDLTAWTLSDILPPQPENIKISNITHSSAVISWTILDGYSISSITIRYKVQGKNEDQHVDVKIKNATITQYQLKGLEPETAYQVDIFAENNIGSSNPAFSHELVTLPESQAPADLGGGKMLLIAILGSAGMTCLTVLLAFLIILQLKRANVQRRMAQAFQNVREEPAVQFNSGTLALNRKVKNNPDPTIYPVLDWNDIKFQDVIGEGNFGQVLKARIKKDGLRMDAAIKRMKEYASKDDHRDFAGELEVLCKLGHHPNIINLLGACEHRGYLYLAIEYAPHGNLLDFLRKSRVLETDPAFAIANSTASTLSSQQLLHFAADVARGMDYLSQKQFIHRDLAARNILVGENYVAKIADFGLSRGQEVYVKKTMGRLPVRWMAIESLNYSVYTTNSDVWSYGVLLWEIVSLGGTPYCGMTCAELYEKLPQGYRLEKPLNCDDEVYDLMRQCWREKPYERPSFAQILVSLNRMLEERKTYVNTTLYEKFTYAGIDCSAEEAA

[5] = molecular target: T1, soluble Tie2-Fc (fusion of the …); test: binding assay with soluble Tie2 (details not given)

Kd [1]: 20.5 nM
concentration at which binding was saturated [2]: > 125 nM
percent of input protein bound [3]: ~100%
Tie2 phosphorylation (ratio of phospho-Tie2 to Tie2, control buffer = 1) [4]: ~8.8 fold
B1: COMP/CC-Ang1/FD (coiled-coil domain of COMP - fibrinogen domain of Ang1) (ligand)
chain: DYKDDDDKGILDLAPQMLRELQETNAALQDVRELLRQQVKEITFLKNTVMECDACGGSLVNLCTKEGVLLKGGKREEEKPFRDCADVYQAGFNKSGIYTIYINNMPEPKKVFCNMDVNGGGWTVIQHREDGSLDFQRGWKEYKMGFGNPSGEYWLGNEFIFAIYSQRQYMLRIELMDWEGNRAYSQYDRFHIGNEKQNYRLYLKGHTGTAGKQSSLILHGADFSTKDADNDNCMCKCALMLTGGWWFDACGPSNLNGMFYTAGQNHGKLNGIKWHYFKGPSYSLRSTTMMIRPLDF
notes: The end, 312, is worked out from the stated lengths: 16 signal + 8 FLAG + 3 + 45 COMP + 2 + 238 Ang1 Leu261-498; ~180 kDa and ~250 kDa were observed under non-reducing conditions; also called COMP-Ang1/FD; CO/CC-A1/FD

binding result [5]: no binding
B2: Ang1/FD (truncated Ang1 that contains only the fibrinogen-like domain, amino acids 284-498) (ligand)
chain: RDCADVYQAGFNKSGIYTIYINNMPEPKKVFCNMDVNGGGWTVIQHREDGSLDFQRGWKEYKMGFGNPSGEYWLGNEFIFAIYSQRQYMLRIELMWEGNRAYSQYDRFHIGNEKQNYRLYLKGHTGYAGKQSSLILHGADFSTKDADNDNCMCKCALMLTGGWWFDACGPSNLNGMFYTAGQNHGKLNGIKWHYFKGPSYSLRSTTMMIRPLDF
notes: The range 284-498 is counted on Ang1, not on the entry; also called monomeric Ang1/FD; recombinant Ang1/FD

Kd [1]: 67 nM
concentration at which binding was saturated [2]: ~30 nM
percent of input protein bound [3]: ~95%
Tie2 phosphorylation (ratio of phospho-Tie2 to Tie2, control buffer = 1) [4]: ~4 fold
B3: CMP/CC-Ang1/FD (coiled-coil domain of CMP - fibrinogen domain of Ang1) (ligand)
chain: YKDDDDKGILDEDPCECKSIVKFQTKVEELINTLQQKLEAVAKRIEALENKIIGSLVNLCTKEGVLLKGGKREEEKPFRDCADVYQAGFNKSGIYTIYINNMPEPKKVFCNMDVNGGGWTVIQHREDGSLDFQRGWKEYKMGFGNPSGEYWLGNEFIFAIYSQRQYMLRIELMDWEGNRAYSQYDRFHIGNEKQNYRLYLKGHTGTAGKQSSLILHGADFSTKDADNDNCMCKCALMLTGGWWFDACGPSNLNGMFYTAGQNHGKLNGIKWHYFKGPSYSLRSTTMMIRPLDF
notes: The end, 310, is worked out from bases 1-933 including the stop codon; ~140 kDa and ~180 kDa were observed under non-reducing conditions; also called CMP-Ang1/FD; C/CC-A1/FD

Kd [1]: 7.5 nM
concentration at which binding was saturated [2]: > 125 nM
percent of input protein bound [3]: ~75%
Tie2 phosphorylation (ratio of phospho-Tie2 to Tie2, control buffer = 1) [4]: ~3.6 fold
B4: native Ang1 (recombinant FLAG-tagged human angiopoietin-1 with C-terminal Myc and His tags) (ligand)
chain: DYKDDDDKLRYNRIQHGQCAYTFILPEHDGNCRESTTDQYNTNALQRDAPHVEPDFSSQKLQHLEHVMENYTQWLQKLENYIVENMKSEMAQIQQNAVQNHTATMLEIGTSLLSQTAEQTRKLTDVETQVLNQTSRLEIQLLENSLSTYKLEKQLLQQTNEILKIHEKNSLLEHKILEMEGKHKEELDTLKEEKENLQGLVTRQTYIIQELEKQLNRATTNNSVLQKQQLELMDTVHNLVNLCTKEGVLLKGGKREEEKPFRDCADVYQAGFNKSGIYTIYINNMPEPKKVFCNMDVNGGGWTVIQHREDGSLDFQRGWKEYKMGFGNPSGEYWLGNEFIFAITSQRQYMLRIELMDWEGNRAYSQYDRFHIGNEKQNYRLYLKGHTGTAGKQSSLILHGADFSTKDADNDNCMCKCALMLTGGWWFDACGPSNLNGMFYTAGQNHGKLNGIKWHYFKGPSYSLRSTTMMIRPLDFDIQHSGGRSSLEGPRFEQKLISEEDLNMHTGHHHHHH
notes: Multimer of variable sizes under non-reducing conditions; Produced in COS-7 cells; also called nAng1

Kd [1]: 158 nM
concentration at which binding was saturated [2]: ~30 nM
percent of input protein bound [3]: ~20%
B5: GCN4/CC-Ang1/FD (coiled-coil domain of GCN4 - fibrinogen domain of Ang1) (ligand)
chain: DYKDDDDKGILMKQLEDKVEELLSKNYHLENEVARLKKLVGEGSLVNLCTKEGVLLKGGKREEEKPFRDCADVYQAGFNKSGIYTIYINNMPEPKKVFCNMDVNGGGWTVIQHREDGSLDFQRGWKEYKMGFGNPSGEYWLGNEFIFAIYSQRQYMLRIELMDWEGNRAYSQYDRFHIGNEKQNYRLYLKGHTGYAGKQSSLILHGADFSTKDADNDNCMCKCALMLTGGWWFDACGPSNLNGMFYTAGQNHGKLNGIKWHYFKGPSYSLRSTTMMIRPLDF
notes: The end, 298, is worked out from bases 1-897 including the stop codon; ~80 kDa under non-reducing conditions; also called GCN4-Ang1/FD; G/CC-A1/FD
